# Key:
# [1] = target: digested β-vignin (β-vignin incubated 30 h with the 6 d.a.i. germinating cowpea seed extract): 27 kDa core with the proteolytic products that stay with it (Vigna unguiculata (cowpea)); test: SEC; Superdex 75 10/300 GL, 25 mM phosphate buffer pH 7.0, 150 mM NaCl; β-vignin digested 30 h with the 6 d.a.i. extract, 50 μg loaded; eluted fractions on SDS-PAGE (silver stained); digest not purified from the extract
# [2] = target: native β-vignin, the vicilin (7S globulin) storage protein of cowpea (Vigna unguiculata) seeds (Vigna unguiculata (cowpea)); test: SEC; Superdex 75 10/300 GL, 25 mM phosphate buffer pH 7.0, 150 mM NaCl, 0.5 mL/min; peak areas by Multiple Peak Fit; monomer to trimer
# [3] = target: native β-vignin, the vicilin (7S globulin) storage protein of cowpea (Vigna unguiculata) seeds (Vigna unguiculata (cowpea)); test: SEC; Superdex 200 10/300 GL, 25 mM Tris-HCl pH 9.0, 150 mM or 300 mM NaCl; 50 μg β-vignin (0.5 mg/mL) loaded
Substance,percent monomer [1] [%],percent trimer [1] [%],percent monomer [2] [%],percent trimer [2] [%],stoichiometry N [3]
digested β-vignin (β-vignin incubated 30 h with the 6 d.a.i. germinating cowpea seed extract): 27 kDa core with the proteolytic products that stay with it (complex),90.2,9.8,–,–,–
"native β-vignin, the vicilin (7S globulin) storage protein of cowpea (Vigna unguiculata) seeds (natural protein)",–,–,80,20,3

# From paper PMC8746429
